# According to patent publication US20210032299A1 (Eli Lilly, published 2021):
# Starred links: 1 amine or outer side, 2 acyl side, 3 side chain; linkers in the order of their positions; H or OH if unused. Non-standard residues stand in square brackets, D forms with d. Groups on a side chain read outwards from the residue. No end group written: not given here. *: point of attachment. C20 diacid = O=C(O)CCCCCCCCCCCCCCCCCCC(=O)*; γGlu = O=C(O)[C@H](CCC(=O)[*:2])N[*:1]; 4Pal = N[C@@H](Cc1ccncc1)C(=O)O; αMeL = CC(C)C[C@](C)(N)C(=O)O; AEEA = NCCOCCOCC(=O)O; Aib = CC(C)(N)C(=O)O
# T1: human glucose-dependent insulinotropic polypeptide (GIP) receptor (human, UniProt P48546 22-466)
# T1 construct: whole, on cells; Assayed as crude membranes of stably transfected CHO cells; also called hGIPR; human GIP receptor
# T1 sequence (looked up): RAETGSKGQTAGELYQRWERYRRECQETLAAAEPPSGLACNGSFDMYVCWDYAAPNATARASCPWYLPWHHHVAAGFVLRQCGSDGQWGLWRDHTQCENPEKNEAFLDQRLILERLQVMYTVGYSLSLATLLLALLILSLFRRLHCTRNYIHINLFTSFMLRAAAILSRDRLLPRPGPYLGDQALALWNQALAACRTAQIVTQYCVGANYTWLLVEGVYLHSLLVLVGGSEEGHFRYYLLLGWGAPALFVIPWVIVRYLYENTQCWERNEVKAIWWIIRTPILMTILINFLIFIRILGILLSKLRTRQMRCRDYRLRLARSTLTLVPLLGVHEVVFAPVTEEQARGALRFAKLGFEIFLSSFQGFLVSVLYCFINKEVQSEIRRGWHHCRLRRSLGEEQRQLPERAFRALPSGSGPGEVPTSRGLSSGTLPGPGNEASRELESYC
# Tests used:
# human glucagon receptor = molecular target: T2, human glucagon receptor (human, UniProt P47871 26-477); assay: SPA, displacement of [125I]-Gcg from hGcgR membranes, 0.1% bacitracin
# T2 construct: whole, on cells; Assayed as crude membranes of stably transfected HEK293 cells; also called hGcgR; GcgR
# T2 sequence (P47871 26-477): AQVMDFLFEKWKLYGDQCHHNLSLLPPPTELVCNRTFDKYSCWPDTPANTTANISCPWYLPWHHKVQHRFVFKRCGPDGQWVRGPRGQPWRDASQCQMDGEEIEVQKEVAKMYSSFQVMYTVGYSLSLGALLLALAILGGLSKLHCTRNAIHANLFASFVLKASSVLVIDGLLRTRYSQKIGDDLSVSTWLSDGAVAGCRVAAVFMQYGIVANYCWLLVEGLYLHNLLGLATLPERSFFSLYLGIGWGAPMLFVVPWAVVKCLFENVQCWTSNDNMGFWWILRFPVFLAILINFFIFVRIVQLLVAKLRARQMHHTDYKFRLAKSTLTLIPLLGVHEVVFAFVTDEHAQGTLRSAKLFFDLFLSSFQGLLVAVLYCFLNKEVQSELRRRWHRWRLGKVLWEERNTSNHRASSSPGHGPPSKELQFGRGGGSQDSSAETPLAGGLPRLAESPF
# Method: The binding buffer contains 25 mM 4-(2-hydroxyethyl)-1-piperazineethanesulfonic acid (HEPES), pH 7.4, 2.5 mM CaCl₂), 1 mM MgCl₂, 0.1% (w/v) bacitracin (Research Products), 0.003% (w/v) Polyoxyethylenesorbitan monolaurate (TWEEN®-20), and Roche Complete™ Protease Inhibitors without EDTA. […] Plates are sealed and mixed on a plate shaker (setting 6) for 1 minute and read with a PerkinElmer Trilux MicroBeta® scintillation counter after 12 hours of incubation/settling time at room temperature.
# Data are analyzed using four-parameter (curve maximum, curve minimum, […], Hill slope) nonlinear regression routines (Genedata Screener, version 12.0.4, Genedata AG, Basal, Switzerland). […] Values for Kᵢ are reported as the geometric mean, with error expressed as the standard error of the mean (SEM) and n is equal to the number of independent replicates (determined in assays performed on different days).
# human GLP-1 receptor = molecular target: T3, human GLP-1 receptor (human, UniProt P43220 24-463); assay: SPA, displacement of [125I]-GLP-1 from hGLP-1R membranes, 0.1% bacitracin
# T3 construct: whole, on cells; Assayed as crude membranes of stably transfected HEK293 cells; also called hGLP1R; hGLP-1R
# Outline: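 Binding buffer: 25 mM HEPES pH 7.4, 2.5 mM CaCl₂, 1 mM MgCl₂, 0.1% bacitracin, 0.003% Tween-20, protease inhibitors without EDTA. Four-parameter nonlinear regression; Kᵢ given as geometric mean ± SEM, n = independent replicates run on different days.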
# [1] = molecular target: T1, human glucose-dependent insulinotropic …; assay: SPA, displacement of [125I]-GIP from hGIPR membranes, 0.1% bacitracin
Binder,Ki (human glucagon receptor),Ki (human GLP-1 receptor),Ki [1]
Y[Aib]EGTFISDYSI[αMeL]LDKK([AEEA-AEEA-γGlu-C20 diacid])HQ[Aib]DFVE[4Pal]LLEGGPSSGAPPPS-NH2 (N-terminus assumed; SMILES CC[C@H](C)[C@H](NC(=O)[C@H](Cc1ccccc1)NC(=O)[C@@H](NC(=O)CNC(=O)[C@H](CCC(=O)O)NC(=O)C(C)(C)NC(=O)[C@@H](N)Cc1ccc(O)cc1)[C@@H](C)O)C(=O)N[C@@H](CO)C(=O)N[C@@H](CC(=O)O)C(=O)N[C@@H](Cc1ccc(O)cc1)C(=O)N[C@@H](CO)C(=O)N[C@H](C(=O)N[C@@](C)(CC(C)C)C(=O)N[C@@H](CC(C)C)C(=O)N[C@@H](CC(=O)O)C(=O)N[C@@H](CCCCN)C(=O)N[C@@H](CCCCNC(=O)COCCOCCNC(=O)COCCOCCNC(=O)CC[C@H](NC(=O)CCCCCCCCCCCCCCCCCCC(=O)O)C(=O)O)C(=O)N[C@@H](Cc1c[nH]cn1)C(=O)N[C@@H](CCC(N)=O)C(=O)NC(C)(C)C(=O)N[C@@H](CC(=O)O)C(=O)N[C@@H](Cc1ccccc1)C(=O)N[C@H](C(=O)N[C@@H](CCC(=O)O)C(=O)N[C@@H](Cc1ccncc1)C(=O)N[C@@H](CC(C)C)C(=O)N[C@@H](CC(C)C)C(=O)N[C@@H](CCC(=O)O)C(=O)NCC(=O)NCC(=O)N1CCC[C@H]1C(=O)N[C@@H](CO)C(=O)N[C@@H](CO)C(=O)NCC(=O)N[C@@H](C)C(=O)N1CCC[C@H]1C(=O)N1CCC[C@H]1C(=O)N1CCC[C@H]1C(=O)N[C@@H](CO)C(N)=O)C(C)C)[C@@H](C)CC) [Example 47],175 nM,320 nM,0.0452 nM
Y[Aib]EGTFISDYSI[αMeL]LDKK([AEEA-AEEA-γGlu-C20 diacid])HQ[Aib]EFVE[4Pal]LLAQGPSSGAPPPS-NH2 (N-terminus assumed; SMILES CC[C@H](C)[C@H](NC(=O)[C@H](Cc1ccccc1)NC(=O)[C@@H](NC(=O)CNC(=O)[C@H](CCC(=O)O)NC(=O)C(C)(C)NC(=O)[C@@H](N)Cc1ccc(O)cc1)[C@@H](C)O)C(=O)N[C@@H](CO)C(=O)N[C@@H](CC(=O)O)C(=O)N[C@@H](Cc1ccc(O)cc1)C(=O)N[C@@H](CO)C(=O)N[C@H](C(=O)N[C@@](C)(CC(C)C)C(=O)N[C@@H](CC(C)C)C(=O)N[C@@H](CC(=O)O)C(=O)N[C@@H](CCCCN)C(=O)N[C@@H](CCCCNC(=O)COCCOCCNC(=O)COCCOCCNC(=O)CC[C@H](NC(=O)CCCCCCCCCCCCCCCCCCC(=O)O)C(=O)O)C(=O)N[C@@H](Cc1c[nH]cn1)C(=O)N[C@@H](CCC(N)=O)C(=O)NC(C)(C)C(=O)N[C@@H](CCC(=O)O)C(=O)N[C@@H](Cc1ccccc1)C(=O)N[C@H](C(=O)N[C@@H](CCC(=O)O)C(=O)N[C@@H](Cc1ccncc1)C(=O)N[C@@H](CC(C)C)C(=O)N[C@@H](CC(C)C)C(=O)N[C@@H](C)C(=O)N[C@@H](CCC(N)=O)C(=O)NCC(=O)N1CCC[C@H]1C(=O)N[C@@H](CO)C(=O)N[C@@H](CO)C(=O)NCC(=O)N[C@@H](C)C(=O)N1CCC[C@H]1C(=O)N1CCC[C@H]1C(=O)N1CCC[C@H]1C(=O)N[C@@H](CO)C(N)=O)C(C)C)[C@@H](C)CC) [Example 57],422 nM,280 nM,0.0154 nM
Y[Aib]EGTFISDYSI[αMeL]LDKK([AEEA-AEEA-γGlu-C20 diacid])HQ[Aib]EFVE[4Pal]LLAAGPSSGAPPPS-NH2 (N-terminus assumed; SMILES CC[C@H](C)[C@H](NC(=O)[C@H](Cc1ccccc1)NC(=O)[C@@H](NC(=O)CNC(=O)[C@H](CCC(=O)O)NC(=O)C(C)(C)NC(=O)[C@@H](N)Cc1ccc(O)cc1)[C@@H](C)O)C(=O)N[C@@H](CO)C(=O)N[C@@H](CC(=O)O)C(=O)N[C@@H](Cc1ccc(O)cc1)C(=O)N[C@@H](CO)C(=O)N[C@H](C(=O)N[C@@](C)(CC(C)C)C(=O)N[C@@H](CC(C)C)C(=O)N[C@@H](CC(=O)O)C(=O)N[C@@H](CCCCN)C(=O)N[C@@H](CCCCNC(=O)COCCOCCNC(=O)COCCOCCNC(=O)CC[C@H](NC(=O)CCCCCCCCCCCCCCCCCCC(=O)O)C(=O)O)C(=O)N[C@@H](Cc1c[nH]cn1)C(=O)N[C@@H](CCC(N)=O)C(=O)NC(C)(C)C(=O)N[C@@H](CCC(=O)O)C(=O)N[C@@H](Cc1ccccc1)C(=O)N[C@H](C(=O)N[C@@H](CCC(=O)O)C(=O)N[C@@H](Cc1ccncc1)C(=O)N[C@@H](CC(C)C)C(=O)N[C@@H](CC(C)C)C(=O)N[C@@H](C)C(=O)N[C@@H](C)C(=O)NCC(=O)N1CCC[C@H]1C(=O)N[C@@H](CO)C(=O)N[C@@H](CO)C(=O)NCC(=O)N[C@@H](C)C(=O)N1CCC[C@H]1C(=O)N1CCC[C@H]1C(=O)N1CCC[C@H]1C(=O)N[C@@H](CO)C(N)=O)C(C)C)[C@@H](C)CC) [Example 59],230 nM,109 nM,0.0148 nM
Y[Aib]EGTFISDYSI[αMeL]LDKK([AEEA-AEEA-γGlu-C20 diacid])HQ[Aib]EFVE[4Pal]LLAGGPSSGAPPPS-NH2 (N-terminus assumed; SMILES CC[C@H](C)[C@H](NC(=O)[C@H](Cc1ccccc1)NC(=O)[C@@H](NC(=O)CNC(=O)[C@H](CCC(=O)O)NC(=O)C(C)(C)NC(=O)[C@@H](N)Cc1ccc(O)cc1)[C@@H](C)O)C(=O)N[C@@H](CO)C(=O)N[C@@H](CC(=O)O)C(=O)N[C@@H](Cc1ccc(O)cc1)C(=O)N[C@@H](CO)C(=O)N[C@H](C(=O)N[C@@](C)(CC(C)C)C(=O)N[C@@H](CC(C)C)C(=O)N[C@@H](CC(=O)O)C(=O)N[C@@H](CCCCN)C(=O)N[C@@H](CCCCNC(=O)COCCOCCNC(=O)COCCOCCNC(=O)CC[C@H](NC(=O)CCCCCCCCCCCCCCCCCCC(=O)O)C(=O)O)C(=O)N[C@@H](Cc1c[nH]cn1)C(=O)N[C@@H](CCC(N)=O)C(=O)NC(C)(C)C(=O)N[C@@H](CCC(=O)O)C(=O)N[C@@H](Cc1ccccc1)C(=O)N[C@H](C(=O)N[C@@H](CCC(=O)O)C(=O)N[C@@H](Cc1ccncc1)C(=O)N[C@@H](CC(C)C)C(=O)N[C@@H](CC(C)C)C(=O)N[C@@H](C)C(=O)NCC(=O)NCC(=O)N1CCC[C@H]1C(=O)N[C@@H](CO)C(=O)N[C@@H](CO)C(=O)NCC(=O)N[C@@H](C)C(=O)N1CCC[C@H]1C(=O)N1CCC[C@H]1C(=O)N1CCC[C@H]1C(=O)N[C@@H](CO)C(N)=O)C(C)C)[C@@H](C)CC) [Example 52],114 nM,128 nM,0.0372 nM
Y[Aib]EGTFISDYSI[αMeL]LDKK([AEEA-AEEA-γGlu-C20 diacid])HQ[Aib]EFVE[4Pal]LLATGPSSGAPPPS-NH2 (N-terminus assumed; SMILES CC[C@H](C)[C@H](NC(=O)[C@H](Cc1ccccc1)NC(=O)[C@@H](NC(=O)CNC(=O)[C@H](CCC(=O)O)NC(=O)C(C)(C)NC(=O)[C@@H](N)Cc1ccc(O)cc1)[C@@H](C)O)C(=O)N[C@@H](CO)C(=O)N[C@@H](CC(=O)O)C(=O)N[C@@H](Cc1ccc(O)cc1)C(=O)N[C@@H](CO)C(=O)N[C@H](C(=O)N[C@@](C)(CC(C)C)C(=O)N[C@@H](CC(C)C)C(=O)N[C@@H](CC(=O)O)C(=O)N[C@@H](CCCCN)C(=O)N[C@@H](CCCCNC(=O)COCCOCCNC(=O)COCCOCCNC(=O)CC[C@H](NC(=O)CCCCCCCCCCCCCCCCCCC(=O)O)C(=O)O)C(=O)N[C@@H](Cc1c[nH]cn1)C(=O)N[C@@H](CCC(N)=O)C(=O)NC(C)(C)C(=O)N[C@@H](CCC(=O)O)C(=O)N[C@@H](Cc1ccccc1)C(=O)N[C@H](C(=O)N[C@@H](CCC(=O)O)C(=O)N[C@@H](Cc1ccncc1)C(=O)N[C@@H](CC(C)C)C(=O)N[C@@H](CC(C)C)C(=O)N[C@@H](C)C(=O)N[C@H](C(=O)NCC(=O)N1CCC[C@H]1C(=O)N[C@@H](CO)C(=O)N[C@@H](CO)C(=O)NCC(=O)N[C@@H](C)C(=O)N1CCC[C@H]1C(=O)N1CCC[C@H]1C(=O)N1CCC[C@H]1C(=O)N[C@@H](CO)C(N)=O)[C@@H](C)O)C(C)C)[C@@H](C)CC) [Example 58],418 nM,459 nM,0.0324 nM
